Results: patent US20260183373A1

Assays:
[1] = molecular target: Aβ(1-40) (UniProt P05067)
[2] = molecular target: Aβ(1-42) (UniProt P05067)
[3] = molecular target: Aβ(1-40) (UniProt P05067); remark: listed apart in the source
[4] = molecular target: Aβ(1-42) (UniProt P05067); remark: listed apart in the source
[5] = molecular target: Aβ(1-40) (UniProt P05067); assay: cell-based or functional assay
[6] = molecular target: Aβ(1-42) (UniProt P05067); assay: cell-based or functional assay

Chain of neprolysin (NEP) (P08473 52-750 limits assumed): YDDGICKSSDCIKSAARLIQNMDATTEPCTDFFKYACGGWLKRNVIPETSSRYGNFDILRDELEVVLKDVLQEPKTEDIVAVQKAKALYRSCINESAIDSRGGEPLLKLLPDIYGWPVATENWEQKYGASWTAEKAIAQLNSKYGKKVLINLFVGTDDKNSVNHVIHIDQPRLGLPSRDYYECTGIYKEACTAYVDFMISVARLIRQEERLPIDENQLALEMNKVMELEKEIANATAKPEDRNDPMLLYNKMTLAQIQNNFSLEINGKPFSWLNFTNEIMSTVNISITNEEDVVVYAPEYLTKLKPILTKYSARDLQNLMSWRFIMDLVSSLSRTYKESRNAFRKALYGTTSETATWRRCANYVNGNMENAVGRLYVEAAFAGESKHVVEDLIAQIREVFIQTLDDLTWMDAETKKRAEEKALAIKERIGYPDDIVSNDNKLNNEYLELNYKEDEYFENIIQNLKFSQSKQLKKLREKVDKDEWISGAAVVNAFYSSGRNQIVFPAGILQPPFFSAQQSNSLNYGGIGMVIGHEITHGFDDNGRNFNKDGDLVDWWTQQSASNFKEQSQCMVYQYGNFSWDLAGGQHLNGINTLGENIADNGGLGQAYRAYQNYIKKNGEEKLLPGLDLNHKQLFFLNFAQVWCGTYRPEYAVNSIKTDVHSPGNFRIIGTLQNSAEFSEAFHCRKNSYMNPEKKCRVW
Chain of MMP2 (enzyme) (P08253 110-660): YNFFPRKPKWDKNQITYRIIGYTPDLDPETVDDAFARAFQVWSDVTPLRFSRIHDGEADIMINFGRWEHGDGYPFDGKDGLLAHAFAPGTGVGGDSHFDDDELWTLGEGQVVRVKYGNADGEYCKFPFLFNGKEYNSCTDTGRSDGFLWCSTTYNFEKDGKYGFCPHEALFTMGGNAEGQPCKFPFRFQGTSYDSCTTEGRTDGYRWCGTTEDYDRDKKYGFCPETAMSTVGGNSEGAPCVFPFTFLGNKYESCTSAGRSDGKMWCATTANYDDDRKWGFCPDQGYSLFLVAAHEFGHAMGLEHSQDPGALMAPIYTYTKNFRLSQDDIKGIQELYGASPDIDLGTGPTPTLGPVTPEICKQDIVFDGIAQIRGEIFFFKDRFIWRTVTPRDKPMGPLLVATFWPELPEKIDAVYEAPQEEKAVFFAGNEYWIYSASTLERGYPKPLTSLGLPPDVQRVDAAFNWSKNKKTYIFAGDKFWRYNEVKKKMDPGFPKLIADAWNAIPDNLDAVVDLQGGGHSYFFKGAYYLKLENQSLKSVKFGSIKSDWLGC

Substance | EC50 (read off the curve) [1] | EC50 (read off the curve) [2] | EC50 of Aβ(1-40) cleavage (intact Aβ by ELISA) [3] | EC50 of Aβ(1-42) cleavage (intact Aβ by ELISA) [4] | EC50 of Aβ cleavage (ELISA-based assay of intact Aβ) [5] | EC50 of Aβ cleavage (ELISA-based assay of intact Aβ) [6]
NEP2 (enzyme) | 50 nM | 60 nM |  |  |  | 
neprolysin (NEP) (from UniProt P08473 52-750) (enzyme) |  |  | 19 nM | 44 nM | 12 nM | 12 nM
MMP2 (enzyme) | 90 nM |  |  |  |  | 
insulin-degrading enzyme (IDE) (from UniProt P14735 42-1019) |  |  |  |  | 0.1 nM | 0.1 nM
